Experimental data taken from paper PMC2705653 (Molecular cell, 2009).
Residue numbers refer to the chain shown, from its start.

Tests used:
[1] = target: T1, Chp1 chromodomain (residues 15-75) for crystallization (S. pombe, UniProt Q10103 15-75); assay: crystal structure
T1 sequence (looked up): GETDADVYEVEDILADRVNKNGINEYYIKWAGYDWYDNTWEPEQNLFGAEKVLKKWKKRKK

[2] = target: T2, Swi6 V82E (S. pombe, UniProt P40381 1-328, V82E); assay: fluorescence polarisation
T2 sequence (looked up): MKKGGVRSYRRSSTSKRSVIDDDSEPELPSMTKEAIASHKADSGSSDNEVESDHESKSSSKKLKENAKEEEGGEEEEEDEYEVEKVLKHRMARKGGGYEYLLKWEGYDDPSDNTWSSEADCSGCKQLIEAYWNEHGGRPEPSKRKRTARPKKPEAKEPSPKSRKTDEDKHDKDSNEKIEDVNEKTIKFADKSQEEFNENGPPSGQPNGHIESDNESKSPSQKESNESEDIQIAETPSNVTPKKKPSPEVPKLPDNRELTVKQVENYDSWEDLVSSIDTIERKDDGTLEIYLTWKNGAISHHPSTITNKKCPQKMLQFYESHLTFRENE

[3] = target: T3, Swi6 E80V V82E (S. pombe, UniProt P40381 1-328, E80V | V82E); assay: fluorescence polarisation
T3 sequence (looked up): T2 sequence (looked up) with E80V

[4] = target: Clr4 chromodomain (residues 1-70) (S. pombe, UniProt O60016 1-70); assay: fluorescence polarisation
[5] = target: T4, Swi6, full length, wild type (S. pombe, UniProt P40381 1-328); assay: fluorescence polarisation
T4 sequence (looked up): T2 sequence (looked up) with E82V

[6] = target: T5, H3K9me3 peptide (isothermal titration calorimetry) (trimethyl-lysine at 9); assay: ITC
T5 chain: ARTKQTARKSTGGKAY

[7] = target: T6, Chp1 chromodomain E23V,V24M (S. pombe, UniProt Q10103 9-76, E23V | V24M); assay: fluorescence polarisation
T6 sequence (looked up): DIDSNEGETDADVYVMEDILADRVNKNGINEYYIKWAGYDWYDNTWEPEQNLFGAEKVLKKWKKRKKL

Clr4 chromodomain (residues 1-70), sequence (O60016 1-70): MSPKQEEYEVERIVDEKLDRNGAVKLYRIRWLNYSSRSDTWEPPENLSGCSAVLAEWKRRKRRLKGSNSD

ARTKQTARKSTGGKAY (trimethyl-lysine at 9) [H3K9me3 peptide (crystallization)]
binding result [1]: binds

ARTKQTARKSTGGKAY (dimethyl-lysine at 9; fluorescein (position not given)) [fluorescein labeled H3K9me2 peptide]
Kd [2]: 2190 ± 130 nM
Kd [3]: 1070 ± 30 nM
Kd [4]: 2860 ± 270 nM
Kd [5]: 10300 ± 1690 nM

B1: Chp1 chromodomain, wild type (for binding studies) (domain or fragment, S. pombe, UniProt Q10103 9-76, looked up)
chain: T6 sequence (looked up) with V15E, M16V
fold higher affinity than Swi6 [6]: ≥ 5 fold

ARTKQTARKSTGGKAY (trimethyl-lysine at 9) [H3K9me3 peptide (fluorescence polarization)]
Kd [2]: 1040 ± 100 nM
Kd [3]: 610 ± 120 nM
Kd [4]: 600 ± 80 nM
Kd [7]: 14700 nM
Kd [5]: 3340 ± 550 nM
